Biological target: T1, GST-Flot2 full length (amino acids 1-428) (mouse, UniProt Q60634 1-428)
T1 construct: it may add a CBP tag as well; also called GST-tagged Flot2
T1 sequence (looked up): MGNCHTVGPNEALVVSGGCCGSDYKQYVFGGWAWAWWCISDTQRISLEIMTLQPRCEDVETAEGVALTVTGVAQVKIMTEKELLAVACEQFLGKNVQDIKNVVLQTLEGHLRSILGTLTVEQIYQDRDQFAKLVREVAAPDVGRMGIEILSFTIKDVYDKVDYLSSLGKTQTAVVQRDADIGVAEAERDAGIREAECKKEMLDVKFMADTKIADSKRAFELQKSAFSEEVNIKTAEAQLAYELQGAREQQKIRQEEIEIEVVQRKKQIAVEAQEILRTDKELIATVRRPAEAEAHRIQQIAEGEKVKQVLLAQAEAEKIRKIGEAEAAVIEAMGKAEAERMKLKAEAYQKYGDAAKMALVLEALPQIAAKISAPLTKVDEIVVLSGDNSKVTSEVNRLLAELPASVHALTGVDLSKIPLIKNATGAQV
Experiment: pull-down; GST pull-down: GST-Flot2 (full length) on GST resin, His-podocin (full length); overnight at 4 °C; eluted with 20 mM reduced glutathione; immunoblot with anti-His
Conditions: both partners purified

binding result: binds
B1: His-podocin full length (natural protein, mouse, UniProt Q91X05 1-385, looked up)
chain: MDSRARSSSREAHGRSSRSSSRDDKKAKAGRGSRGRARPDAGAERQSTGRTATRGEPRAPAATATVVDVDEVRGPGEEGTEVVALLESERPEEGIKPSGLGACEWLLVLASLIFIIMTFPFSIWFCIKVVQEYERVIIFRLGHLLPGRAKGPGLFFFLPCLDTYHKVDLRLQTLEIPFHEVVTKDMFIMEIDAVCYYRMENASLLLSSLAHVSKAIQFLVQTTMKRLLAHRSLTEILLERKSIAQDVKVALDAVTCIWGIKVERTEIKDVRLPAGLQHSLAVEAEAQRQAKVRVIAAEGEKAASESLRMAAEILSGTPAAVQLRYLHTLQSLSTEKPATVVLPLPFDMLSLLSSPGNRAQGSINYPSSSKPVEPLNPKKKDSPML
notes: Podocin, mouse, full-length cDNA in pET-28a(+); also called His-tagged podocin; His-tagged mouse podocin

From publication PMC9830511, “Flot2 acts as a novel mediator of podocyte injury in proteinuric kidney disease” (International Journal of Biological Sciences, 2023)
